Laboratory results as given in patent US20170362301A1 (Janssen / Centocor, published 2017).

Key:
[1] = biological target: T1, EGFR (form in the assay not stated) (human, UniProt P00533 25-645, limits assumed); assay: ELISA, NEM conjugate 10 nM
[2] = biological target: T1, EGFR (form in the assay not stated); assay: ELISA, NEM conjugate 500 nM
[3] = biological target: T1, EGFR (form in the assay not stated); assay: ELISA, NEM conjugate 100 nM

B1: P54AR4-83v2 H75C, NEM conjugate (designed binder)
chain: LPAPKNLVVSEVTEDSARLSWDDPWAFYESFLIQYQESEKVGEAIVLTVPGSERSYDLTGLKPGTEYTVSIYGVCNVYKDTNMRGLPLSAIFTT
modifications: NEM on Cys 75
notes: His-tagged
[1]
  binding ratio vs parent P54AR4-83v2: 0.07 ratio
[2]
  binding ratio vs parent P54AR4-83v2: 0.25 ratio
[3]
  binding ratio vs parent P54AR4-83v2: 0.19 ratio

B2: P54AR4-83v2 N82C, NEM conjugate (designed binder)
chain: LPAPKNLVVSEVTEDSARLSWDDPWAFYESFLIQYQESEKVGEAIVLTVPGSERSYDLTGLKPGTEYTVSIYGVHNVYKDTCMRGLPLSAIFTT
modifications: NEM on Cys 82
notes: His-tagged
[1]
  binding ratio vs parent P54AR4-83v2: 0.56 ratio
[2]
  binding ratio vs parent P54AR4-83v2: 0.96 ratio
[3]
  binding ratio vs parent P54AR4-83v2: 0.97 ratio

B3: P54AR4-83v2 P2C, NEM conjugate (designed binder)
chain: LCAPKNLVVSEVTEDSARLSWDDPWAFYESFLIQYQESEKVGEAIVLTVPGSERSYDLTGLKPGTEYTVSIYGVHNVYKDTNMRGLPLSAIFTT
modifications: NEM on Cys 2
notes: His-tagged
[1]
  binding ratio vs parent P54AR4-83v2: 0 ratio
[2]
  binding ratio vs parent P54AR4-83v2: 0.01 ratio
[3]
  binding ratio vs parent P54AR4-83v2: 0 ratio

B4: P54AR4-83v2 R54C, NEM conjugate (designed binder)
chain: LPAPKNLVVSEVTEDSARLSWDDPWAFYESFLIQYQESEKVGEAIVLTVPGSECSYDLTGLKPGTEYTVSIYGVHNVYKDTNMRGLPLSAIFTT
modifications: NEM on Cys 54
notes: His-tagged
[1]
  binding ratio vs parent P54AR4-83v2: 0.89 ratio
[2]
  binding ratio vs parent P54AR4-83v2: 0.93 ratio
[3]
  binding ratio vs parent P54AR4-83v2: 1.01 ratio

B5: P54AR4-83v2 I91C, NEM conjugate (designed binder)
chain: LPAPKNLVVSEVTEDSARLSWDDPWAFYESFLIQYQESEKVGEAIVLTVPGSERSYDLTGLKPGTEYTVSIYGVHNVYKDTNMRGLPLSACFTT
modifications: NEM on Cys 91
notes: His-tagged; also called 191C
[1]
  binding ratio vs parent P54AR4-83v2: 0.9 ratio
[2]
  binding ratio vs parent P54AR4-83v2: 1 ratio
[3]
  binding ratio vs parent P54AR4-83v2: 1.01 ratio

B6: P54AR4-83v2 R18C, NEM conjugate (designed binder)
chain: LPAPKNLVVSEVTEDSACLSWDDPWAFYESFLIQYQESEKVGEAIVLTVPGSERSYDLTGLKPGTEYTVSIYGVHNVYKDTNMRGLPLSAIFTT
modifications: NEM on Cys 18
notes: His-tagged
[1]
  binding ratio vs parent P54AR4-83v2: 0.86 ratio
[2]
  binding ratio vs parent P54AR4-83v2: 0.94 ratio
[3]
  binding ratio vs parent P54AR4-83v2: 1.05 ratio

B7: P54AR4-83v2 M83C, NEM conjugate (designed binder)
chain: LPAPKNLVVSEVTEDSARLSWDDPWAFYESFLIQYQESEKVGEAIVLTVPGSERSYDLTGLKPGTEYTVSIYGVHNVYKDTNCRGLPLSAIFTT
modifications: NEM on Cys 83
notes: His-tagged
[1]
  binding ratio vs parent P54AR4-83v2: 0.07 ratio
[2]
  binding ratio vs parent P54AR4-83v2: 0.24 ratio
[3]
  binding ratio vs parent P54AR4-83v2: 0.04 ratio

B8: P54AR4-83v2 K40C, NEM conjugate (designed binder)
chain: LPAPKNLVVSEVTEDSARLSWDDPWAFYESFLIQYQESECVGEAIVLTVPGSERSYDLTGLKPGTEYTVSIYGVHNVYKDTNMRGLPLSAIFTT
modifications: NEM on Cys 40
notes: His-tagged
[1]
  binding ratio vs parent P54AR4-83v2: 0.88 ratio
[2]
  binding ratio vs parent P54AR4-83v2: 0.86 ratio
[3]
  binding ratio vs parent P54AR4-83v2: 0.95 ratio

B9: P54AR4-83v2 L88C, NEM conjugate (designed binder)
chain: LPAPKNLVVSEVTEDSARLSWDDPWAFYESFLIQYQESEKVGEAIVLTVPGSERSYDLTGLKPGTEYTVSIYGVHNVYKDTNMRGLPCSAIFTT
modifications: NEM on Cys 88
notes: His-tagged
[1]
  binding ratio vs parent P54AR4-83v2: 0.95 ratio
[2]
  binding ratio vs parent P54AR4-83v2: 0.97 ratio
[3]
  binding ratio vs parent P54AR4-83v2: 1.03 ratio

B10: P54AR4-83v2 S10C, NEM conjugate (designed binder)
chain: LPAPKNLVVCEVTEDSARLSWDDPWAFYESFLIQYQESEKVGEAIVLTVPGSERSYDLTGLKPGTEYTVSIYGVHNVYKDTNMRGLPLSAIFTT
modifications: NEM on Cys 10
notes: His-tagged
[1]
  binding ratio vs parent P54AR4-83v2: 0.83 ratio
[2]
  binding ratio vs parent P54AR4-83v2: 0.96 ratio
[3]
  binding ratio vs parent P54AR4-83v2: 1.07 ratio

B11: P54AR4-83v2 I45C, NEM conjugate (designed binder)
chain: LPAPKNLVVSEVTEDSARLSWDDPWAFYESFLIQYQESEKVGEACVLTVPGSERSYDLTGLKPGTEYTVSIYGVHNVYKDTNMRGLPLSAIFTT
modifications: NEM on Cys 45
notes: His-tagged
[1]
  binding ratio vs parent P54AR4-83v2: 0.91 ratio
[2]
  binding ratio vs parent P54AR4-83v2: 0.93 ratio
[3]
  binding ratio vs parent P54AR4-83v2: 1.04 ratio

B12: P54AR4-83v2 L86C, NEM conjugate (designed binder)
chain: LPAPKNLVVSEVTEDSARLSWDDPWAFYESFLIQYQESEKVGEAIVLTVPGSERSYDLTGLKPGTEYTVSIYGVHNVYKDTNMRGCPLSAIFTT
modifications: NEM on Cys 86
notes: His-tagged
[1]
  binding ratio vs parent P54AR4-83v2: 0.77 ratio
[2]
  binding ratio vs parent P54AR4-83v2: 0.92 ratio
[3]
  binding ratio vs parent P54AR4-83v2: 0.96 ratio

B13: P54AR4-83v2 R84C, NEM conjugate (designed binder)
chain: LPAPKNLVVSEVTEDSARLSWDDPWAFYESFLIQYQESEKVGEAIVLTVPGSERSYDLTGLKPGTEYTVSIYGVHNVYKDTNMCGLPLSAIFTT
modifications: NEM on Cys 84
notes: His-tagged
[1]
  binding ratio vs parent P54AR4-83v2: 0.91 ratio
[2]
  binding ratio vs parent P54AR4-83v2: 0.98 ratio
[3]
  binding ratio vs parent P54AR4-83v2: 1.04 ratio

B14: P54AR4-83v2 P63C, NEM conjugate (designed binder)
chain: LPAPKNLVVSEVTEDSARLSWDDPWAFYESFLIQYQESEKVGEAIVLTVPGSERSYDLTGLKCGTEYTVSIYGVHNVYKDTNMRGLPLSAIFTT
modifications: NEM on Cys 63
notes: His-tagged
[1]
  binding ratio vs parent P54AR4-83v2: 0.95 ratio
[2]
  binding ratio vs parent P54AR4-83v2: 0.92 ratio
[3]
  binding ratio vs parent P54AR4-83v2: 1.02 ratio
